{
  "source": "patent US8003854B2",
  "about": "“GRG32: a novel EPSP synthase gene conferring herbicide resistance” (Athenix Corp., priority 2006, dated 2011)",
  "molecules": {"B1": {"name": "GRG32: glyphosate-resistant EPSP synthase; predicted translation product of grg32 (SEQ ID NO:2), expressed from clone pAX1950 in pRSF1b (protein)", "chain": "MTASASWTARKGQPLQGSLTIPGDKSVSHRAVMFAALADGVSHIDGFLEGEDTRATAAIFSQMGVRIETPSPSQRIVHGVGVDGLQAPAGPLDCGNAGTGMRLLAGLLAAQPFDAVMVGDESLSRRPMRRVTGPLAQMGAKIDTEADGTPPLRVHGGQPLHGIDFASPVASAQVKSAVLLAGLYAQGETSVTEPHPTRDYSERMLRAFGVEIEFSPGKARLRGGQRLRATDIAVPADFSSAAFFLVAASIIPGSALTLRQVGLNPRRTGLLAALRLMGADIREENHAEQGGEAVADLVVRHAPLHGAEIPEALVPDMIDEFPALFVAAAAAQGNTIVRGAAELRVKESDRLAAMATGLRSLGVQVDETEDGATIHGGHELGSGTIESHGDHRIAMAFAIAGQLSSGEVRINDIANVATSFPNFDGIARTAGFNLG", "modifications": "Isolated from soil sample"}},
  "tested_on": "E. coli cells",
  "test": "Glyphosate screen: growth of pRSF1b clones on M63+ plates with glyphosate",
  "assay_type": "cell-based",
  "conditions": "two days at 37° C.",
  "protocol": "The pRSF1b clones were plated onto M63+ plates containing antibiotic and either 0 mM or 50 mM glyphosate. Growth was scored after two days growth at 37° C.",
  "data": [
    {"molecule": "B1", "values": [
      {"measurement": "resistance to 50 mM glyphosate in E. coli cells", "result": "confer resistance"}
    ]}
  ]
}
